Measurements taken from publication PMC8060857.

Molecular target: HR-N1, SARS S protein amino acids 882-973 (SARS-CoV (Urbani strain)) (UniProt P59594)
Experiment: AUC

“HR-N1, SARS S protein amino acids 882-973 (from UniProt P59594 882-973) (domain or fragment)” showed a stoichiometry N of 4.
